In FireProtDB (doi:10.1021/bi982427c):

B1: Acyl-CoA-binding protein, P07107 (parent)
chain: MSQAEFDKAAEEVKHLKTKPADEEMLFIYSHYKQATVGDINTERPGMLDFKGKAKWDAWNELKGTSKEDAMKAYIDKVEELKKKYGI

Variants of: B1
Settings: Bos taurus; pH 5.3; 5 °C; GdnHCl; Fluorescence; Sodium acetate 0.02 M; reversible: yes; structure 2ABD; whole UniProt chain shown

Variant	ddG of mutation (higher = less stable) [kcal/mol]	unfolding free energy [kcal/mol]
MSQAEFDKAAEEAKHLKTKPADEEMLFIYSHYKQATVGDINTERPGMLDFKGKAKWDAWNELKGTSKEDAMKAYIDKVEELKKKYGI [V13A]	1.69	6.2
MSQAEFDKAAEEVKHLKTKPADEEMLFIYSHNKQATVGDINTERPGMLDFKGKAKWDAWNELKGTSKEDAMKAYIDKVEELKKKYGI [Y32N]	1.52	6.37
MSQAEFDKAAEEVKHLKTKPADEEMLFIYSHYKQATVGDINTERPGMLDFKGKAKWDAWNELKGTSKEDAMKAFIDKVEELKKKYGI [Y74F]	-0.27	8.16
MSQAEFDKAAEEVKHLKTKPADEEMLFIYSHYKQATVGDINTERPGMLDFKGKAKWDAWNELKGTSKEDAMKAAIDKVEELKKKYGI [Y74A]	4.83	3.06
MSQAEFDKAAEEVKHLKTKPADEEMLFIYSHYKQATVGDINTERPGMLDFKGKAAWDAWNELKGTSKEDAMKAYIDKVEELKKKYGI [K55A]	0.86	7.03
MSQAEFDKAAEEVKHAKTKPADEEMLFIYSHYKQATVGDINTERPGMLDFKGKAKWDAWNELKGTSKEDAMKAYIDKVEELKKKYGI [L16A]	3.1	4.79
MSQAEFDKAAEEVKHLKTKPADEEMLFIFSHYKQATVGDINTERPGMLDFKGKAKWDAWNELKGTSKEDAMKAYIDKVEELKKKYGI [Y29F]	1.06	6.83
MSQAEFDKAAEEVKHLKTKPADEEMLFIASHYKQATVGDINTERPGMLDFKGKAKWDAWNELKGTSKEDAMKAYIDKVEELKKKYGI [Y29A]	2.47	5.42
MSQAEFDKAAEEVKHLKTKPADEEMLFIYSHYKQATVGDINTERPGMLDFKGKAKWDAWNELKGTSKEDAMKAYIDKVEEAKKKYGI [L81A]	3.7	4.19
MSQAEFDKAAEEVKHLKTKPADEEMLFIYSHYKAATVGDINTERPGMLDFKGKAKWDAWNELKGTSKEDAMKAYIDKVEELKKKYGI [Q34A]	3.66	4.23
MSQAEFDKAAEEVKHLKTKPADEEMAFIYSHYKQATVGDINTERPGMLDFKGKAKWDAWNELKGTSKEDAMKAYIDKVEELKKKYGI [L26A]	1.02	6.87
MSQAEFDKAAEEVKHLKTKPADEEMLFIYSHYKQATVGDINTERAGMLDFKGKAKWDAWNELKGTSKEDAMKAYIDKVEELKKKYGI [P45A]	1.4	6.49
MSQAEFDKAAEEVKHLKTKPADEEMLFIYSHYKQATVGDINTERPGMLDFKGMAMWDAWNELKGTSKEDAMKAYIDKVEELKKKYGI [K53M K55M]	-1.01	8.9
MSQAEFDKAAEEVKHLKTKPADEEMLFIYSHYKQATVGDINTERPGMLDFKGMAKWDAWNELKGTSKEDAMKAYIDKVEELKKKYGI [K53M]	-0.18	8.07
MSQAEFDKAAEEVKHLKTKPADEEMLFIYSHYKQATVGDINTERPGMLDFKGKAKWDAWNELKGTSKEDAMKAYIDKAEELKKKYGI [V78A]	1.14	6.75
MSQAEFDKAAEEVKHLKTKPADEEMLFIYSHYRQATVGDINTERPGMLDFKGKAKWDAWNELKGTSKEDAMKAYIDKVEELKKKYGI [K33R]	1.83	6.06
MSQAEFDKAAEEVKHLKTKPADEEMLFIYSHYAQATVGDINTERPGMLDFKGKAKWDAWNELKGTSKEDAMKAYIDKVEELKKKYGI [K33A]	1.02	6.87
MSQAEFDKAAEEVKHLKTKPADEEMLFIYSHYEQATVGDINTERPGMLDFKGKAKWDAWNELKGTSKEDAMKAYIDKVEELKKKYGI [K33E]	1.68	6.21
MSQAEFDKAAEEVKHLKTKPADEEMLFIYSHYKQGTVGDINTERPGMLDFKGKAKWDAWNELKGTSKEDAMKAYIDKVEELKKKYGI [A35G]	1.57	6.32
MSQAEFDKAAEEVKHLKTKPADEEMLFIYSHYKQAAVGDINTERPGMLDFKGKAKWDAWNELKGTSKEDAMKAYIDKVEELKKKYGI [T36A]	1.09	6.8
MSQAEFDKAAEEVKHLKTKPAHEEMLFIYSHYKQATVGDINTERPGMLDFKGKAKWDAWNELKGTSKEDAMKAYIDKVEELKKKYGI [D22H]	0.56	7.33
MSQAEFDKAAEEVKHLKTKPAAEEMLFIYSHYKQATVGDINTERPGMLDFKGKAKWDAWNELKGTSKEDAMKAYIDKVEELKKKYGI [D22A]	-0.42	8.31
MSQAEFDKAAEEVKHLKTKPADEEMLFIYSHYKQATVGDINTERPGMLDFKGKAKWDAWNELKGTSKADAMKAYIDKVEELKKKYGI [E68A]	0.36	7.53
MSQAEADKAAEEVKHLKTKPADEEMLFIYSHYKQATVGDINTERPGMLDFKGKAKWDAWNELKGTSKEDAMKAYIDKVEELKKKYGI [F6A]	2.52	5.37
MSQAEFDKAAEEVKHLKTKAADEEMLFIYSHYKQATVGDINTERPGMLDFKGKAKWDAWNELKGTSKEDAMKAYIDKVEELKKKYGI [P20A]	1.07	6.82
